From patent EP4538294A1 (Shandong Simcere Biopharmaceutical Co., Ltd., dated 2025) come the findings set out here.

Several values for one entry are separate records, joined by “and”; a condition that tells them apart may be missing. Equal entries are not always repeated.

Sequences and labels used below:
B1: REGN5459 (bispecific antibody, human IgG4 S228P, kappa)
heavy 1: EVQLVESGGGLVQPGGSLRLSCAASGFTFSNFWMTWVRQAPGKGLEWVANMNQDGSEKYYVDSVKGRFTISRDNAKSSLYLQMNSLRAEDTAVYYCARDREYCISTSCYDDFDYWGQGTLVTVSSASTKGPSVFPLAPCSRSTSESTAALGCLVKDYFPEPVTVSWNSGALTSGVHTFPAVLQSSGLYSLSSVVTVPSSSLGTKTYTCNVDHKPSNTKVDKRVESKYGPPCPPCPAPPVAGPSVFLFPPKPKDTLMISRTPEVTCVVVDVSQEDPEVQFNWYVDGVEVHNAKTKPREEQFNSTYRVVSVLTVLHQDWLNGKEYKCKVSNKGLPSSIEKTISKAKGQPREPQVYTLPPSQEEMTKNQVSLTCLVKGFYPSDIAVEWESNGQPENNYKTTPPVLDSDGSFFLYSRLTVDKSRWQEGNVFSCSVMHEALHNHYTQKSLSLSLGK
heavy 2: EVQLVESGGGLVQPGRSLRLSCAASGFTFDDYSMHWVRQAPGKGLEWVSGISWNSGSIGYADSVKGRFTISRDNAKNSLYLQMNSLRAEDTALYYCAKYGSGYGKFYYYGMDVWGQGTTVTVSSASTKGPSVFPLAPCSRSTSESTAALGCLVKDYFPEPVTVSWNSGALTSGVHTFPAVLQSSGLYSLSSVVTVPSSSLGTKTYTCNVDHKPSNTKVDKRVESKYGPPCPPCPAPPVAGPSVFLFPPKPKDTLMISRTPEVTCVVVDVSQEDPEVQFNWYVDGVEVHNAKTKPREEQFNSTYRVVSVLTVLHQDWLNGKEYKCKVSNKGLPSSIEKTISKAKGQPREPQVYTLPPSQEEMTKNQVSLTCLVKGFYPSDIAVEWESNGQPENNYKTTPPVLDSDGSFFLYSRLTVDKSRWQEGNVFSCSVMHEALHNRFTQKSLSLSLGK
light: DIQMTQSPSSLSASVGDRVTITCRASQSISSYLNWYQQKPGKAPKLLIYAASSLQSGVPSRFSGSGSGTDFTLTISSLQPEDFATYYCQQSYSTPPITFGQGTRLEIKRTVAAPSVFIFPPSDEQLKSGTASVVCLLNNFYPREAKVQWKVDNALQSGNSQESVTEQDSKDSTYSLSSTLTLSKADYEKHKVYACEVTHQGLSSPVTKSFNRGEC
notes: Positive control, BCMA x CD3 bispecific of Regeneron (WO 2020018820 A1), made in Expi293F; Fc with mutations that prevent homodimerization; also called RGEN5459
B2: Tri-59 (trispecific antibody, V domains shown)
VHH: EVQLVESGGGLVQPGGSLRLSCAASESISSIHIMAWYRQAPGKQRELVAGIRNDGSTVYVDSVKGRFTISRDNAKNSLYLQMNSLRAEDTAVYYCNADQGFGSYSEWERRSRWGQGTTVTVSS
VH 1: EVQLVQSGAEVKKPGSSVKVSCKASGYTFTSYGISWVRQAPGQGLEWMGEIYPRSGNTYYNEKFKGRVTLTADKSTSTAYMELSSLRSEDTAVYYCARGRAYGRNYPMDYWGQGTTVTVSS
VL 1: EIVLTQSPATLSLSPGERATLSCRASQSIGTSIHWYQQKPGQSPRLLIKYASESISGIPARFSGSGSGTDFTLTISSLEPEDFAVYYCQQSNSWPYTFGGGTKVEIK
VH 2: EVQLVESGGGVVQPGRSLRLSCAASGFTFTDYYMSWVRQAPGKGLEWVAMSRNKAKGHTIEYSSSVKGRFTISRDNSKNTLYLQMNSLRAEDTAVYYCARDTYESYDGYFDVWGQGTTVTVSS
VL 2: DIVMTQSPDSLAVSLGERATINCKSSQSLFNSRSRKNYLAWYQQKPGQTPKLLIYWASIRESGVPDRFSGSGSGTDFTLTISSLQAEDVAVYYCKQSYYLYTFGQGTKLEIK
B3: Tri-55 (trispecific antibody, V domains shown)
VHH: B2 VHH
VH 1: B2 VH 1
VL 1: B2 VL 1
VH 2: B2 VH 2
VL 2: B2 VL 2
B4: Tri-35 (trispecific antibody, V domains shown)
VHH: EVQLVESGGGLVQPGGSLRLSCSASGFTLDYYMIGWFRQAPGKEREGLSSISPADGSTYYADSVKGRFTISRDSSKNTVYLQMNSLRAEDTAVYYCAAGNEATISWGFGPWEYDYWGQGTMVTVSS
VH 1: B2 VH 1
VL 1: B2 VL 1
VH 2: B2 VH 2
VL 2: B2 VL 2
B5: Tri-41 (trispecific antibody, V domains shown)
VHH: B4 VHH
VH 1: B2 VH 1
VL 1: B2 VL 1
VH 2: B2 VH 2
VL 2: B2 VL 2
B6: Tri-49 (trispecific antibody, V domains shown)
VHH: B2 VHH
VH 1: B2 VH 1
VL 1: B2 VL 1
VH 2: B2 VH 2
VL 2: B2 VL 2
B7: Tri-29 (trispecific antibody, V domains shown)
VHH: B4 VHH
VH 1: B2 VH 1
VL 1: B2 VL 1
VH 2: B2 VH 2
VL 2: B2 VL 2
B8: Tri-32 (trispecific antibody, V domains shown)
VHH: B4 VHH
VH 1: B2 VH 1
VL 1: B2 VL 1
VH 2: B2 VH 2
VL 2: B2 VL 2
B9: JNJ7564 (bispecific antibody, human IgG4 S228P, kappa, lambda, F234A L235A)
heavy 1: not shown
light 1: DIQMTQSPSSLSASVGDRVTITCKASQNVATHVGWYQQKPGKAPKRLIYSASYRYSGVPSRFSGSGSGTEFTLTISNLQPEDFATYYCQQYNRYPYTFGQGTKLEIKRTVAAPSVFIFPPSDEQLKSGTASVVCLLNNFYPREAKVQWKVDNALQSGNSQESVTEQDSKDSTYSLSSTLTLSKADYEKHKVYACEVTHQGLSSPVTKSFNRGEC
heavy 2: EVQLVESGGGLVQPGGSLRLSCAASGFTFNTYAMNWVRQAPGKGLEWVARIRSKYNNYATYYAASVKGRFTISRDDSKNSLYLQMNSLKTEDTAVYYCARHGNFGNSYVSWFAYWGQGTLVTVSSASTKGPSVFPLAPCSRSTSESTAALGCLVKDYFPEPVTVSWNSGALTSGVHTFPAVLQSSGLYSLSSVVTVPSSSLGTKTYTCNVDHKPSNTKVDKRVESKYGPPCPPCPAPEAAGGPSVFLFPPKPKDTLMISRTPEVTCVVVDVSQEDPEVQFNWYVDGVEVHNAKTKPREEQFNSTYRVVSVLTVLHQDWLNGKEYKCKVSNKGLPSSIEKTISKAKGQPREPQVYTLPPSQEEMTKNQVSLTCLVKGFYPSDIAVEWESNGQPENNYKTTPPVLDSDGSFLLYSKLTVDKSRWQEGNVFSCSVMHEALHNHYTQKSLSLSLGK
light 2: QTVVTQEPSLTVSPGGTVTLTCRSSTGAVTTSNYANWVQQKPGQAPRGLIGGTNKRAPGTPARFSGSLLGGKAALTLSGVQPEDEAEYYCALWYSNLWVFGGGTKLTVLGQPKAAPSVTLFPPSSEELQANKATLVCLISDFYPGAVTVAWKADSSPVKAGVETTTPSKQSNNKYAASSYLSLTPEQWKSHRSYSCQVTHEGSTVEKTVAPTECS
notes: Positive control, GPRC5D x CD3 bispecific of Johnson & Johnson (WO 2019220368 A1), made by reduction and reoxidation of the two parental antibodies
B10: REGN5459-anti-BCMA-hIgG1 (antibody, V domains shown)
VH: EVQLVESGGGLVQPGGSLRLSCAASGFTFSNFWMTWVRQAPGKGLEWVANMNQDGSEKYYVDSVKGRFTISRDNAKSSLYLQMNSLRAEDTAVYYCARDREYCISTSCYDDFDYWGQGTLVTVSS
VL: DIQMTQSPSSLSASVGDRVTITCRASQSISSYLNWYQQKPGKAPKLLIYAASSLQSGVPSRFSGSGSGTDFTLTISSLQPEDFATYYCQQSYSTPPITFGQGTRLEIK

T4 sequence (Q9NZD1 whole entry): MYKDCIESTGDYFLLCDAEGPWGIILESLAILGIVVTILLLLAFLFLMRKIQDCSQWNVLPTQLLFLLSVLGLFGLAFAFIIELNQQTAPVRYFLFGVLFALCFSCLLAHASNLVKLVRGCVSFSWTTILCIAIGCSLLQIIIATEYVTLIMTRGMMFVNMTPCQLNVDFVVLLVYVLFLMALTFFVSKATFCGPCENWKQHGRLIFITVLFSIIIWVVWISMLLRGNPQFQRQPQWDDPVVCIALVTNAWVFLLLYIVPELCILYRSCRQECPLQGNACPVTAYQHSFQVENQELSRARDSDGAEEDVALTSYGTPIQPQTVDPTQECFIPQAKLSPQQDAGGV

The target in the first test is T1, human CD3 on Jurkat cells and on activated human PBMC (human, UniProt P07766 23-207; P04234 22-171).
T1 construct: whole, on cells; Endogenous CD3 of the T cell receptor complex on cells
T1 sequence (P07766 23-207, chain 1 of 2): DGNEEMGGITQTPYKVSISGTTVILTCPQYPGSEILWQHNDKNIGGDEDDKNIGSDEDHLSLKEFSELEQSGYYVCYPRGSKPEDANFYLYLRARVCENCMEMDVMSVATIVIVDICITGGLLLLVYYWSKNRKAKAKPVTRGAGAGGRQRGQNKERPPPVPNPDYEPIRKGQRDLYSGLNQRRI
T1 sequence (P04234 22-171, chain 2 of 2): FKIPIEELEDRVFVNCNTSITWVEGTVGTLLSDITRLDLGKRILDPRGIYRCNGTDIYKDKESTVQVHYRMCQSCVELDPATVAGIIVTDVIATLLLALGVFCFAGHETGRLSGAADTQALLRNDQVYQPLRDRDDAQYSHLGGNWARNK
Kind of test: FACS, Jurkat cells.
For the molecule B1, the EC50 – broadly, the concentration that produces a half-maximal response – was 74.7 nM and 49.7 nM and 66.8 nM and 101 nM.
Turning to B2, the “Maximum mean fluorescence intensity” value was 1800.
For B3, the response was half-maximal at 179 nM (EC50) and the “Maximum mean fluorescence intensity” value worked out at 4690.
For the molecule B4, the “Maximum mean fluorescence intensity” value came to 320.
For B5, the “Maximum mean fluorescence intensity” value came out at 85.
Turning to B6, it took 157 nM to reach a half-maximal effect (EC50) and the “Maximum mean fluorescence intensity” value was 795.
Regarding B7, the “Maximum mean fluorescence intensity” value is 418.
With B8, the EC50 came to 370 nM and the “Maximum mean fluorescence intensity” value is 3120.

The target in a further test is T1, human CD3 on Jurkat cells and on …. Kind of test: FACS, activated human PBMC.
For the molecule B1, the EC50 was 223 nM and 221 nM.
Turning to B9, the half-maximal effective concentration (EC50) was 5.21 nM and 7.36 nM.
As for B2, a half-maximal effect (EC50) was put at 92.1 nM and the “Maximum mean fluorescence intensity” value was 3510.
The like results for B3 were, in that order, 149 nM and 2260.
In the same order, the values of B4 are 81.4 nM and 2240.
For the molecule B5, the “Maximum mean fluorescence intensity” value was 235.
As to B6, the response was half-maximal at 31.8 nM (EC50) and the “Maximum mean fluorescence intensity” value worked out at 1730.
For B7, it took 161 nM to reach a half-maximal effect (EC50) and the “Maximum mean fluorescence intensity” value was determined as 6730.
For B8, the “Maximum mean fluorescence intensity” value was 1780.

For another test, the target named is T2, monkey CD3 on activated monkey PBMC (monkey).
T2 construct: whole, on cells
T2 sequence (Q95LI5 22-198): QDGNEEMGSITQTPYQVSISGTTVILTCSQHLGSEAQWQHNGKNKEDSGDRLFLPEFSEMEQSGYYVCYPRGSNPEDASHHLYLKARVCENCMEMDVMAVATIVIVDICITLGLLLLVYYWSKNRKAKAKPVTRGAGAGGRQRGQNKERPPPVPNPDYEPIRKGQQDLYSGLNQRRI
Put plainly: FACS, activated monkey PBMC. For orientation: A flow cytometer gives signals particle by particle.
For B1, the EC50 turned out to be 161 nM.
On the same count and under the same terms, next, B9: 5.79 nM and 5.72 nM.
Consider B2, for which the EC50 was 249 nM and the “Maximum mean fluorescence intensity” value is 5280.
In the case of B3, a half-maximal effect (EC50) was put at 159 nM and the “Maximum mean fluorescence intensity” value came to 2030.
As to B4, the “Maximum mean fluorescence intensity” value amounted to 1970.
Consider B5, for which the “Maximum mean fluorescence intensity” value amounted to 417.
Regarding B6, the midpoint of the response, the EC50, lay at 59.4 nM and the “Maximum mean fluorescence intensity” value was 1380.
With B7, the “Maximum mean fluorescence intensity” value is 5630.
Consider B8, for which the “Maximum mean fluorescence intensity” value came out at 1680.

In a further test the target is T3, human BCMA on Flp-inCHO-human BCMA cells (human, UniProt Q02223 1-184).
T3 construct: whole, on cells
T3 sequence (looked up): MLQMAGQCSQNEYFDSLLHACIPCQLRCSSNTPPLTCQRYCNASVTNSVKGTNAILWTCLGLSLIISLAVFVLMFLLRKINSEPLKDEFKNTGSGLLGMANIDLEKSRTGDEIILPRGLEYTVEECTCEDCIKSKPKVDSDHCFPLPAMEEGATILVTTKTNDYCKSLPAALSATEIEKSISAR
Kind of test: FACS, Flp-inCHO-human BCMA cells.
With B10, the binding result is recorded as “binds”.

Another test addresses T4, human GPRC5D on CHOK1-human GPRC5D cells (human, UniProt Q9NZD1 1-345).
T4 construct: whole, on cells
Put plainly: FACS, CHOK1-human GPRC5D cells.
Regarding B1, the binding result was “no binding (tested: 100 nM highest concentration)”.
Regarding B2, the EC50 was 0.59 nM.
The molecule B3 registered a concentration giving a half-maximal response (EC50) of 6.26 nM.
On the same count and under the same terms, next, B4: 1.78 nM; B5: 4.3 nM; B6: 2.75 nM.
Still for that read-out and setting: the value for B7 was 1.39 nM; that for B8 was 3.06 nM.

Another test concerns the target T3, human BCMA on Flp-inCHO-human BCMA cells. Kind of test: FACS, Flp-inCHO-human BCMA cells. This is another data set of the same source.
Turning to B9, the binding result is “no binding (tested: 100 nM highest concentration)”.
Consider B2, for which it took 1.21 nM to reach a half-maximal effect (EC50).
On the same count and under the same terms, next, B3: 0.92 nM.
Same read-out and setting: the value for B4 was 2.53 nM; that for B5 was 1.52 nM; that for B6 was 1.34 nM.
B7 displayed an EC50 of 2.27 nM.
B8: the concentration for a half-maximal effect (EC50) is 2.03 nM.
